Results taken from publication PMC8189437 (Molecular Cell, 2021).

B1: Gid8 with a C-terminal twin-Strep tag (natural protein)
chain: MTISTLSNETTKSGSCSGQGKNGGKDFTYGKKCFTKEEWKEQVAKYSAMGELYANKTIHYPLKIQPNSSGGSQDEGFATIQTTPIEPTLPRLLLNYFVSMAYEDSSIRMAKELGFIRNNKDIAVFNDLYKIKERFHIKHLIKLGRINEAMEEINSIFGLEVLEETFNATGSYTGRTDRQQQQQQQQFDIDGDLHFKLLLLNLIEMIRSHHQQENITKDSNDFILNLIQYSQNKLAIKASSSVKKMQELELAMTLLLFPLSDSADSGSIKLPKSLQNLYSISLRSKIADLVNEKLLKFIHPRIQFEISNNNSKFPDLLNSDKKIITQNFTVYNNNLVNGSNGTKITHISSDQPINEKMSSNEVTAAANSVWLNQRDGNVGTGSAATTFHNLENKNYWNQTSELLSSSNGKEKGLEFNNYYSSEFPYEPRLTQIMKLWCWCENQLHHNQIGVPRVEN
B2: Gid2 (natural protein)
chain: MSELLDSFETEFAKFYTDSNLEETNLQKCLDHTHEFKSQLKKLKAHLNKHIQESKPEVYNKLSDKEKQKFKRKRELIIEKLSKSQRQWDHSVKKQIKYVSQQSNRFNKSTLNKLKEFDIDSVYVNKLPKETMENVNEAIGYHILRYSIDNMPLGNKNEAFQYLKDVYGITNKESTEFIEMGQIVHDLKKGDTESCLKWCSNEMESLSSNHTALSSLKFDLYTLSAMQIVKHGNPVELYYQITQNAPLDCFRHREKELMQNVVPLLTKSLIGQPIEDIDSKVNKELKECTSLFIKEYCAAKHIFFDSPLFLIVLSGLISFQFFIKYKTIRELAHVDWTTKDELPFDVKLPDFLTHFHPIFICPVLKEETTTENPPYSLACHHIISKKALDRLSKNGTITFKCPYCPVNTSMSSTKKVRFVML
B3: fructose-1,6-bisphosphatase (Fbp1), C-terminally 6xHis-tagged (enzyme)
chain: PTLVNGPRRDSTEGFDTDIITLPRFIIEHQKQFKNATGDFTLVLNALQFAFKFVSHTIRRAELVNLVGLAGASNFTGDQQKKLDVLGDEIFINAMRASGIIKVLVSEEQEDLIVFPTNTGSYAVCCDPIDGSSNLDAGVSVGTIASIFRLLPDSSGTINDVLRCGKEMVAACYAMYGSSTHLVLTLGDGVDGFTLDTNLGEFILTHPNLRIPPQKAIYSINEGNTLYWNETIRTFIEKVKQPQADNNNKPFSARYVGSMVADVHRTFLYGGLFAYPCDKKSPNGKLRLLYEAFPMAFLMEQAGGKAVNDRGERILDLVPSHIHDKSSIWLGSSGEIDKFLDHIGKSQ
B4: Gid4 (Δ1-116) (domain or fragment)
chain: TVCTNYLRPRMQFTGYQISGYKRYQVTVNLKTVDLPKKDCTSLSPHLSGFLSIRGLTNQHPEISTYFEAYAVNHKELGFLSSSWKDEPVLNEFKATDQTDLEHWINFPSFRQLFLMSQKNGLNSTDDNGTTNAAKKLPPQQLPTTPSADAGNISRIFSQEKQFDNYLNERFIFMKWKEKFLVPDALLMEGVDGASYDGFYYIVHDQVTGNIQGFYYHQDAEKFQQLELVPSLKNKVESSDCSFEFA

How the values were obtained:
GST-WDR26 (human) = GST-WDR26 (human) (UniProt Q9H7D7); assay: cryo-EM structure
Gid1 = target: T1, Gid1 (S. cerevisiae, UniProt P53076); assay: cryo-EM structure
T1 sequence: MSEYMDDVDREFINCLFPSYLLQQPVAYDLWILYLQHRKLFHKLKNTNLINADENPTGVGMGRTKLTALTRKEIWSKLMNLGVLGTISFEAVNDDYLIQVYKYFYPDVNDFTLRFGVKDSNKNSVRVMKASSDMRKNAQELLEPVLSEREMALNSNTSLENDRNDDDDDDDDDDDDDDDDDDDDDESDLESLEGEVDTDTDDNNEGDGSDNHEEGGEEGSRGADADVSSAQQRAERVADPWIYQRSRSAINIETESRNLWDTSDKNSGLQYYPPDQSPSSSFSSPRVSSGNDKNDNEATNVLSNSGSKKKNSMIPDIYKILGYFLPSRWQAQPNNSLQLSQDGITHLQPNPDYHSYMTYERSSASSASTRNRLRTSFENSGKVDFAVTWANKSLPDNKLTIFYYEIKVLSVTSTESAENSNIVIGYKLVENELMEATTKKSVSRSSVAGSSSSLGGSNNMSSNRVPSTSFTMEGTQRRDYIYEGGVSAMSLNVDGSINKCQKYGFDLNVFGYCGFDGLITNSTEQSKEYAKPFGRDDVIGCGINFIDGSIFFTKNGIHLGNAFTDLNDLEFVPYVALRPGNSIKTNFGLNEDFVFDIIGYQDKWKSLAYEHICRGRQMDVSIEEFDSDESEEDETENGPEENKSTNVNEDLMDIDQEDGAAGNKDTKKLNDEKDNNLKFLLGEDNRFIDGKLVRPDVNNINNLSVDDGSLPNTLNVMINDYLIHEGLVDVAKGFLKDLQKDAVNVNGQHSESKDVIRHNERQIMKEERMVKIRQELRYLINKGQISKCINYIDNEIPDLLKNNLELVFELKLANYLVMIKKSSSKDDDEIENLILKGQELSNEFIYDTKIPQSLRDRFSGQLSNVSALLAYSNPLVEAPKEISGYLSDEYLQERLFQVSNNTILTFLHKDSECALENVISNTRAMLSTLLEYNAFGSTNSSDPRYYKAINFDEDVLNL

Gid9 = target: T2, Gid9 (S. cerevisiae, UniProt P40492 1-516); assay: cryo-EM structure
T2 sequence: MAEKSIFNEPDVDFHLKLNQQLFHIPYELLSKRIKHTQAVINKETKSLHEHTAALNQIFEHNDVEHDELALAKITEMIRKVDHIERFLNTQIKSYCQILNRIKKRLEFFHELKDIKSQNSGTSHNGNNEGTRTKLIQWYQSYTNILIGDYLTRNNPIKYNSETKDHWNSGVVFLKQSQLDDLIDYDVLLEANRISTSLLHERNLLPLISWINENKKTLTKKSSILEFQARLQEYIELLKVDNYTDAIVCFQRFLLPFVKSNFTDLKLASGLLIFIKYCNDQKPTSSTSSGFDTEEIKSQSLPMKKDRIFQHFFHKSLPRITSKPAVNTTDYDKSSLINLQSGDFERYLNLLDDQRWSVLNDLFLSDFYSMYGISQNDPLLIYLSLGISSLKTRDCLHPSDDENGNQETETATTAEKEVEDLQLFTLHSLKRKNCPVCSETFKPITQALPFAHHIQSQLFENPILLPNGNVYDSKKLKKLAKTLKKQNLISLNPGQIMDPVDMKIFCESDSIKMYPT

[1] = target: B1; assay: cryo-EM structure
crystal structure = target: the molecule itself; assay: crystal structure
Gid5 = target: T3, Gid5 (S. cerevisiae, UniProt P40547); assay: cryo-EM structure
T3 sequence: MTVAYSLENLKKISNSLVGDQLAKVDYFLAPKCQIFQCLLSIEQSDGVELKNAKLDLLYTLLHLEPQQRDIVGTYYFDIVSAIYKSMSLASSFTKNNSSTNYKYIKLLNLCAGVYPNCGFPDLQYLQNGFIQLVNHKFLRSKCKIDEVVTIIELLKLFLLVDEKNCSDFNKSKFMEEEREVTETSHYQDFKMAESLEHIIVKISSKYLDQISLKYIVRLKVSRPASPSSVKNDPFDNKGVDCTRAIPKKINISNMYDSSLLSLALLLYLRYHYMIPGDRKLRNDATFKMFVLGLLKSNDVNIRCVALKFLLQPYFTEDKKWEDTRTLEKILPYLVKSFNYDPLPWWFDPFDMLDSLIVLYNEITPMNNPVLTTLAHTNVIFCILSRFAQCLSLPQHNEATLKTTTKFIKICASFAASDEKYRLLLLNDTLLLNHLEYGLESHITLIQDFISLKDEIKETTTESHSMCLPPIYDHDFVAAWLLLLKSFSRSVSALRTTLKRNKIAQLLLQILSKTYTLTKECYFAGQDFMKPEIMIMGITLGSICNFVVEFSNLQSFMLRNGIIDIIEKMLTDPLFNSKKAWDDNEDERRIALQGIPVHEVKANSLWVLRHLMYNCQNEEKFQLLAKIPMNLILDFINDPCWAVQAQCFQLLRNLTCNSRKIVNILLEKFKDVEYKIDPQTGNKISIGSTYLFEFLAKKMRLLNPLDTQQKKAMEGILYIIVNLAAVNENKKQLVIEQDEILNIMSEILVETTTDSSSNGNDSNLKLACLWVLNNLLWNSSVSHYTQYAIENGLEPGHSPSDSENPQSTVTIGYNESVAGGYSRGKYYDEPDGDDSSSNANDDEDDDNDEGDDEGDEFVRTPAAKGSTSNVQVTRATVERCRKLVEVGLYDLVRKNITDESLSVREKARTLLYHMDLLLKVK

Question: Which stoichiometry N (GST-WDR26 (human)) does the source give for “GST-WDR26 (from UniProt Q9H7D7 1-661) (natural protein)” here?
Answer: The stoichiometry N was 2.

Question: What does the source list for B1?
Answer: binding result (Gid1): binds; binding result (Gid9): binds

Question: Does B2 bind [1]?
Answer: Result: binds

Question: Does B2 bind (Gid9)?
Answer: Result: binds

Question: For B3, which “stoichiometry N” value (crystal structure) is on record?
Answer: Its value is 4.

Question: Does B4 bind (Gid5)?
Answer: Result: binds
